Here are results for three molecules from patent US20130171217A1, “ENZYMATIC PERACID GENERATION FOR USE IN SKIN CARE PRODUCTS” (E I DU PONT DE NEMOURS AND COMPANY, priority 2010, published 2013).

This assay can be described thus: Two-step treatment of hair tresses, tress tensile strength. On the procedure: Medium brown hair was used in these examples. Stock hair swatches were custom made by International Hair Importers (Glendale, N.Y.). Each swatch had 1500 mg of 50% reversed hair, soft glued in the middle with glue thickness of 1 mm and width of 2 cm.
Test-hair-sample consisted of a hair bundle of approximately 50 mg hair of 4 cm length, held together by a 1 mm thick, 2 mm wide and 5 mm long glue strip. A sheet of BYTAC® (TYPE VF-81, Saint-Gobain Performance Plastics, Wayne, N.J.) was attached to a polystyrene cover-plate, providing a TEFLON®-coated test-surface for mounting and treatment of hair. A strip of double-sided scotch tape was applied on the BYTAC® surface, closer to the top edge of the test plate. The glued side of the test-hair-sample was pressed down on the exposed side of the tape, making sure that the unglued hair strands are completely clear of the tape. The glued parts of the tress and exposed double-sided tape surface were covered with a strip of clear single-sided tape. Although the method is described for a single test-hair-tress, 4 tresses were used for each test condition and were placed side-by-side during the entire treatment.
The test tress was wetted by tap water and the excess water was absorbed with a paper towel. The calculated volume of the enzyme formulation was applied and was worked in gently and evenly into hair strands with gloved fingers for ˜30 seconds and let the formulation soak in for the specified deposition time. The tress was then rinsed with tap water agitated through a peristaltic pump for 20 seconds, to completely remove the surfactant.
Excess water was removed from the wetted tress from the previous step by absorption on a paper towel. The requisite volumes of the substrates (H2O2 and triacetin (TA)) were applied onto the test-tress. The mixture was rubbed into the hair strand firmly and evenly, with gloved finger for ˜1 min. The tress was left semi-covered for the specified treatment time.
Test-hair was washed with a diluted surfactant solution by rubbing the surfactant into hair with enough vigor to foam, for one minute to remove all traced of oils and residues arising during tress preparation or from previous cycles. Hair was rinsed thoroughly with tap water, agitated through a peristaltic pump for 35 seconds, while gently opening tresses with gloved fingers to ascertain that all adherents (surfactant or moisturizer) are dislodged. Excess moisture was absorbed by pressing down the paper towel over the tress. This would mark the end of one cycle. Treatment cycles were repeated starting from the enzyme-deposition step until the desired number of cycles was reached.
Two samples from each experiment were subjected to Tensile assay as described in Example 23, to determine the extent of hair-weakening.
The following experiments followed the general method of treatment disclosed in Example 25. Solutions were made in 5% TWEEN®-20 surfactant in 50 mM citrate buffer at pH 6. […] H2O2 and triacetin, formulations were made according to Example 24, in 20% LUBRIDERM® lotion in 50 mM citrate buffer at pH 6. After application of the reagents, the treatment was allowed to continue for 24 hr, as in daily application. TWEEN®-20 (5% in 50 mM citrate buffer at pH 6) was used for the final surfactant wash. The treatment was repeated for 15 additional cycles, 16 days in all.
The following experiments followed the general method of treatment disclosed in Example 26, except that after application of the reagents, the treatment was allowed to continue for shorter times per cycle rather than 24 hours per cycle.
Enzyme solutions were made in 0.5% or 5% TWEEN®-20 surfactant in 50 mM citrate buffer at pH 6. […] H2O2 and triacetin, formulations were made according to Example 24, in 20% LUBRIDERM® lotion (Johnson & Johnson, New Brunswick, N.J.) in 50 mM citrate buffer at pH 6. After application of 400 μL each of the reagents, the treatment was allowed to continue for 20-40 min. […]

Setting [1] is: 1500 μg/mL (E/H 6), deposition 5 min, 0.5 M H2O2, 1 M TA, 2 hr/cycle.

B1: SEQ ID NO: 323: S54V variant of the aryl esterase from Mycobacterium smegmatis fused to hair binding domain HC263 via a flexible linker (protein)
chain: MAKRILCFGDSLTWGWVPVEDGAPTERFAPDVRWTGVLAQQLGADFEVIEEGLVARTTNIDDPTDPRLNGASYLPSCLATHLPLDLVIIMLGTNDTKAYFRRTPLDIALGMSVLVTQVLTSAGGVGTTYPAPKVLVVSPPPLAPMPHPWFQLIFEGGEQKTTELARVYSALASFMKVPFFDAGSVISTDGVDGIHFTEANNRDLGVALAEQVRSLLGPGSGGAGSPGSAGGPGSPSAQSQLPDKHSGLHERAPQRYGPEPEPEPEPIPEPPKEAPVVIEKPKPKPKPKPKPPAHDHKNQKETHQRHAAGSGGGGSPHHHHHH
The molecule B1 gave a TS under setting [1] of 0.28 N/mgH.

B2: C277S-HC263: C277S variant of Thermotoga maritima perhydrolase fused via a flexible linker to hair-binding domain HC263 (protein)
chain: MAFFDLPLEELKKYRPERYEEKDFDEFWEETLAESEKFPLDPVFERMESHLKTVEAYDVTFSGYRGQRIKGWLLVPKLEEEKLPCVVQYIGYNGGRGFPHDWLFWPSMGYICFVMDTRGQGSGWLKGDTPDYPEGPVDPQYPGFMTRGILDPRTYYYRRVFTDAVRAVEAAASFPQVDQERIVIAGGSQGGGIALAVSALSKKAKALLCDVPFLCHFRRAVQLVDTHPYAEITNFLKTHRDKEEIVFRTLSYFDGVNFAARAKIPALFSVGLMDNISPPSTVFAAYNYYAGPKEIRIYPYNNHEGGGSFQAVEQVKFLKKLFEKGGPGSGGAGSPGSAGGPGSPSAQSQLPDKHSGLHERAPQRYGPEPEPEPEPIPEPPKEAPVVIEKPKPKPKPKPKPPAHDHKNQKETHQRHAAGSGGGGSPHHHHHH
For B2, the TS (750 μg/mL (E/H 3), 0.25 M H2O2, 0.25 M TA, 20 min/cycle, 16 cycles) is reported as 2.64 N/mgH; the TS (750 μg/mL (E/H 3), 0.25 M H2O2, 0.25 M TA, 24 hr/cycle, 16 cycles) was determined as 1.51 N/mgH; the TS (750 μg/mL (E/H 3), 0.5 M H2O2, 0.5 M TA, 20 min/cycle, 16 cycles) came out at 2.09 N/mgH; the TS (750 μg/mL (E/H 3), 0.5 M H2O2, 0.5 M TA, 24 hr/cycle, 16 cycles) turned out to be 0.25 N/mgH; the TS (750 μg/mL (E/H 3), 0.75 M H2O2, 1 M TA, 40 min/cycle) is listed as 2.49 N/mgH; the TS (1500 μg/mL (E/H 5), 0.75 M H2O2, 1 M TA, 20 min/cycle) was 2.47 N/mgH. Moreover, the TS under setting [1] was 1.62 N/mgH; the TS (1750 μg/mL (E/H 7), 0.25 M H2O2, 0.25 M TA, 20 min/cycle, 16 cycles) is on record as 2.33 N/mgH; the TS (1750 μg/mL (E/H 7), 0.25 M H2O2, 0.25 M TA, 24 hr/cycle, 16 cycles) is recorded as 0.77 N/mgH; the TS (1750 μg/mL (E/H 7), 0.5 M H2O2, 0.5 M TA, 20 min/cycle, 16 cycles) worked out at 1.90 N/mgH; the TS (1750 μg/mL (E/H 7), 0.5 M H2O2, 0.5 M TA, 24 hr/cycle, 16 cycles) is 0.14 N/mgH; the TS (1750 μg/mL (E/H 7), 0.75 M H2O2, 1 M TA, 40 min/cycle) was determined as 1.65 N/mgH. Also, the TS by setting is: (2500 μg/mL (E/H 10), 0.75 M H2O2, 1 M TA, 20 min/cycle) 1.73 N/mgH; (2500 μg/mL (E/H 10), 0.75 M H2O2, 1 M TA, 40 min/cycle) 1.67 N/mgH; (2500 μg/mL (E/H 10), 20 min/cycle, 1 cycle) 3.44 N/mgH; (2500 μg/mL, 4 cycles) 3.13 N/mgH; (2500 μg/mL, 8 cycles) 2.34 N/mgH; (2500 μg/mL, 12 cycles) 1.66 N/mgH. Besides, for the setting “2500 μg/mL, 16 cycles”, the TS is recorded as 0.95 N/mgH. In addition, the “Predicted TS for 24 h/cycle” value is, setting by setting: (750 μg/mL, from 40 min/cycle) 1.00 ^ N/mgH; (1500 μg/mL, from 20 min/cycle) 0.97 ^ N/mgH; (1750 μg/mL, from 40 min/cycle, (d) predicted disintegration of hair) −0.13(d) N/mgH; (2500 μg/mL, from 20 min/cycle, (d) predicted disintegration of hair in 16 × 24 h/cycle) −0.02(d) N/mgH; (2500 μg/mL, from 40 min/cycle, (d) predicted disintegration of hair) −0.10(d) N/mgH.

B3: C277S: non-targeted C277S variant of the Thermotoga maritima perhydrolase, un-targeted control (protein, listed as Thermotoga maritima)
chain: MAFFDLPLEELKKYRPERYEEKDFDEFWEETLAESEKFPLDPVFERMESHLKTVEAYDVTFSGYRGQRIKGWLLVPKLEEEKLPCVVQYIGYNGGRGFPHDWLFWPSMGYICFVMDTRGQGSGWLKGDTPDYPEGPVDPQYPGFMTRGILDPRTYYYRRVFTDAVRAVEAAASFPQVDQERIVIAGGSQGGGIALAVSALSKKAKALLCDVPFLCHFRRAVQLVDTHPYAEITNFLKTHRDKEEIVFRTLSYFDGVNFAARAKIPALFSVGLMDNISPPSTVFAAYNYYAGPKEIRIYPYNNHEGGGSFQAVEQVKFLKKLFEKG
B3: the TS under setting [1] is 2.84 N/mgH.
